Here are results for one molecule from publication PMC7305169, “High flavivirus structural plasticity demonstrated by a non-spherical morphological variant” (Nature Communications, 2020).

The assay concerns the target T1, ZIKV envelope (E) protein, strain H/PF/2013, on purified virus particles (Zika virus (ZIKV-H/PF/2013)).
T1 construct: envelope (E) protein of Zika virus strain H/PF/2013, cut product of the viral polyprotein, membrane-anchored on the virus particle; the entire E protein with its transmembrane regions was fitted; Stood on whole virus particles (catSP after 37 °C with Fab C10) together with the M protein and the lipid membrane
The assay is described as follows: cryoEM micrographs and 2D averages; Fab mixed with purified virus at a molar ratio of 1.5 Fab to E protein; Fab added before exposure to 37 °C (DENV3-CH53489, ZIKV) or after the virus was incubated at 37 °C (DENV3-CH53489); binding seen as spiky surface and Fab density in 2D averages. The conditions noted are these: both partners purified.

B1: Fab C10 (Fab, V domains shown)
VH: EVQLVESGAEVKKPGASVKVSCKASGYTFTSYAMHWVRQAPGQRLEWMGWINAGNGNTKYSQKFQDRVTITRDTSASTAYMELSSLRSEDTAIYYCARDKVDDYGDYWFPTLWYFDYWGQGTLVTVS
VL: ALTQPASVSGSPGQSITISCTGTSSDVGGFNYVSWFQQHPGKAPKLMLYDVTSRPSGVSSRFSGSKSGNTASLTISGLQAEDEADYYCSSHTSRGTWVFGGGTKLTVL
notes: Only the variable regions of the Fab were fitted into the maps; also called antibody C10; Fab fragment of antibody C10; source: monoclonal antibody C10 obtained from Gavin Screaton; Fab made from IgG with papain conjugated resins, purified (anion-exchange, gel filtration)
With B1, the binding result is “binds”.
